# What was measured:
# [1] = molecular target: T1, cMet-Fc fusion protein (extracellular domain of the cMet receptor expressed as an Fc-fusion protein) (human, UniProt P08581 25-932); experiment: phage ELISA, cMet-Fc vs TRAIL-Fc
# T1 construct: extracellular domain; also called soluble cMet-Fc-fusion protein; soluble cMet receptor; not shown: Fc part
# Outline: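 Specificity check: phage displaying peptides incubated 2 h at room temperature on wells coated with 0.5 μg/mL cMet-Fc versus TRAIL-Fc, after blocking with 3% BSA/PBST. HRP-anti-M13 antibody detected binding phage.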
# [2] = molecular target: T1, cMet-Fc fusion protein (extracellular …); experiment: phage ELISA on cMet-Fc, competitor HGF 500 ng/mL
# Outline: (§1)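 Plates coated with 0.5 μg/mL cMet-Fc, with TRAIL-Fc as background, then blocked with 3% BSA. Bound phage detected with HRP anti-M13 antibody.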
# [3] = molecular target: T1, cMet-Fc fusion protein (extracellular …); experiment: phage ELISA on cMet-Fc, competitor HGF 100 ng/mL
# Outline: as §1
# [4] = molecular target: T2, human cMet expressed on 3T3 cells (human, UniProt P08581 25-1390); experiment: whole cell phage ELISA, 3T3 human cMet vs 3T3
# T2 construct: whole, on cells; cells fixed with glutaraldehyde; also called cell surface-expressed human cMet; 3T3 cells that over-express human cMet
# T2 sequence (P08581 25-1390): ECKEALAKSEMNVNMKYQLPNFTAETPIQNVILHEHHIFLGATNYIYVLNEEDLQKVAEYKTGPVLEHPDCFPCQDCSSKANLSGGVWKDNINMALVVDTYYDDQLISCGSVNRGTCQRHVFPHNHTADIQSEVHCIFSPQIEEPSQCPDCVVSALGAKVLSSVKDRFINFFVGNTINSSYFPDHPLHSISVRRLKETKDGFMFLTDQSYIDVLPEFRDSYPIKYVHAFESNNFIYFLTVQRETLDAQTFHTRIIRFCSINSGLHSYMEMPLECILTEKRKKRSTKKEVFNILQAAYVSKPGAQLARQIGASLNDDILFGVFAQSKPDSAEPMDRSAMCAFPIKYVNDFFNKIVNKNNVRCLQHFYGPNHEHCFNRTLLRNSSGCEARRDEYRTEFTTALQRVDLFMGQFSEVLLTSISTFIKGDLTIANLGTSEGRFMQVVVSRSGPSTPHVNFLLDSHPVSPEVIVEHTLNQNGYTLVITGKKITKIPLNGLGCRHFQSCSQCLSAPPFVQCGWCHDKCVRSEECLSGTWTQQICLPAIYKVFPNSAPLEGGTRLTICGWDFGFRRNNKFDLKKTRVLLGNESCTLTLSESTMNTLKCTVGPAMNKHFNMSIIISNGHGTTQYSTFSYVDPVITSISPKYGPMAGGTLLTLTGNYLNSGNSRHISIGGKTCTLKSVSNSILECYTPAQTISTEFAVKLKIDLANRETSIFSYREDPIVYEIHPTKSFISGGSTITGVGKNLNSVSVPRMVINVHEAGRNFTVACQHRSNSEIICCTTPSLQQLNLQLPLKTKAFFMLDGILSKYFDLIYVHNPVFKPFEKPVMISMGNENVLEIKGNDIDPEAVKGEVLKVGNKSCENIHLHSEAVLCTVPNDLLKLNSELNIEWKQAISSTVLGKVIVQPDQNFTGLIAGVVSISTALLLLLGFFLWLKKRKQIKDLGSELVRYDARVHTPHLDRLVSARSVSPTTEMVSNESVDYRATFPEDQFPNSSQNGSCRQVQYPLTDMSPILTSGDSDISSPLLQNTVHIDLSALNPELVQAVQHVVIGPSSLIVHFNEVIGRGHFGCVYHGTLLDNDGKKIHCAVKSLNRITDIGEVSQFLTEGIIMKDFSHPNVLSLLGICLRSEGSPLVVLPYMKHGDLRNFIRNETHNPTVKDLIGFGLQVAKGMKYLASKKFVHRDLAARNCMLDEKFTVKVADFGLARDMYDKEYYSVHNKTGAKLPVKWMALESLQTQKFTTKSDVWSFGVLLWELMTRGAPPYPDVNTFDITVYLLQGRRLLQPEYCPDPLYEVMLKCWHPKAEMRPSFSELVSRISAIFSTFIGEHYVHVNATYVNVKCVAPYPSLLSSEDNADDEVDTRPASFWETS
# Outline: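 Bound phage was detected with an HRP-conjugated anti-M13 antibody after PBST washes. The cells were cMet-over-expressing 3T3, read against plain 3T3.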
# T1 sequence (P08581 25-932): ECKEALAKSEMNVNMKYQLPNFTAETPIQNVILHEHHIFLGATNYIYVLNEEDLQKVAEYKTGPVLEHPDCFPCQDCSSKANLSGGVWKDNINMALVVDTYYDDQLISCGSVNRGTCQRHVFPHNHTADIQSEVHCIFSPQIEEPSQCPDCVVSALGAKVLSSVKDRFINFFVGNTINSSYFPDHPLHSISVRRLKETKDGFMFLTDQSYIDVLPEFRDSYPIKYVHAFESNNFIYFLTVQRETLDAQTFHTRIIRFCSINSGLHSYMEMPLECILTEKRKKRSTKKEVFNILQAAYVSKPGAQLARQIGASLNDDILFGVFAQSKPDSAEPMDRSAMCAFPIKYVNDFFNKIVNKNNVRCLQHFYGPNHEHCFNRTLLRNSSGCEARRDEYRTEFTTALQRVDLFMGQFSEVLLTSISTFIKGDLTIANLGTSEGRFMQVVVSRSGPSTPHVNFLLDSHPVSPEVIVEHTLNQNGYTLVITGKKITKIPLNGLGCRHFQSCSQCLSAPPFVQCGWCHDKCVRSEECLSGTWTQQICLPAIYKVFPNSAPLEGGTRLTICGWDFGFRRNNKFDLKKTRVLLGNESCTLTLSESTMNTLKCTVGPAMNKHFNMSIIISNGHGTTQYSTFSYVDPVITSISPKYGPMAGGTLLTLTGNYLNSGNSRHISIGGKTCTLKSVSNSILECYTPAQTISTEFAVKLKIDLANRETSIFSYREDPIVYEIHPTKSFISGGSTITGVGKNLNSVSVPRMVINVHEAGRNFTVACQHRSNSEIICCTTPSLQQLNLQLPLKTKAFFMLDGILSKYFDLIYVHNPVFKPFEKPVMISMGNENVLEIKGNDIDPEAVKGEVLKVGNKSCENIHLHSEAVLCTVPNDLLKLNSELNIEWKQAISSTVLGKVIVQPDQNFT
Binder,Protein ELISA (fold over background) [1] [fold],% of binding in the absence of HGF [2] [%],% of binding in the absence of HGF [3] [%],WC ELISA (fold over background) [4] [fold]
GSFWNCTTDLGAMSDCGFFAP [445-E07 peptide-displaying phage (SEQ ID NO: 383)],3.1,64,82,1.37
GSFTACNKTSTTRQPCNPYAP [451-B12 peptide-displaying phage (SEQ ID NO: 384)],3.1,27,61,1.37
GDYSECFFEPDSFEVKCYDRDP [545-H12 peptide-displaying phage (SEQ ID NO: 399)],11.3,60,74,1.3
AGAWNCEYPTFICEWQGA [570-E07 peptide-displaying phage (SEQ ID NO: 012)],4.5,71,81,1.27
GDDFHCEFIDDYQSEICYFNDP [333-C03 peptide-displaying phage (SEQ ID NO: 391)],12.4,43,52,1.37
GSGMGCHQVNISTGDCAEDAP [442-E03 peptide-displaying phage (SEQ ID NO: 381)],3.9,81,130,1.43
GSMNMCDTTDEISPTCHPSAP [441-H01 peptide-displaying phage (SEQ ID NO: 378)],3.6,69,91,1.4
GSAGWCYTMNYVDQLCTYMAP [445-E11 peptide-displaying phage (SEQ ID NO: 387)],3.7,79,69,1.43
GDASWCDENSPAAWFYCELWDP [551-D02 peptide-displaying phage (SEQ ID NO: 394)],13.4,70,91,1.37
GDLLGCGYQEKGGEYKCRFNDP [334-F05 peptide-displaying phage (SEQ ID NO: 395)],13.5,29,58,1.4
GSQNNCEYGSRGSSFCLAMAP [465-C06 peptide-displaying phage (SEQ ID NO: 377)],6.4,104,184,1.23
GDPWWCFEKDSFIPFACWHHDP [330-G02 peptide-displaying phage (SEQ ID NO: 396)],7.4,31,37,1.3
GDYDYCDFDLETYIPECHSYDP [546-G02 peptide-displaying phage (SEQ ID NO: 390)],16.1,19,32,1.27
GSELFCFYHHQGYEGCDVLAP [465-B07 peptide-displaying phage (SEQ ID NO: 385)],4.8,79,111,1.27
GSDMNCTVLAQDQIFCFREAP [451-C06 peptide-displaying phage (SEQ ID NO: 386)],3,86,108,1.37
GSMLGCLFEHQNKYDCYVLAP [443-D04 peptide-displaying phage (SEQ ID NO: 379)],3.2,73,69,1.43
GDSYNCSWDSKTFEVTCLYADP [546-B01 peptide-displaying phage (SEQ ID NO: 393)],8.4,77,95,1.2
GSSARCDELINDFHSCLVMAP [445-E06 peptide-displaying phage (SEQ ID NO: 375)],4.3,73,83,1.33
AGDGWCMAWPEICEWLGT [434-E12 peptide-displaying phage (SEQ ID NO: 014)],4.8,41,117,1.33
GDPDECQLNRETFEVWCPWHDP [547-C09 peptide-displaying phage (SEQ ID NO: 401)],4.3,32,50,1.23
GDLLVCKFDDKFWTETCEWADP [549-G05 peptide-displaying phage (SEQ ID NO: 392)],23.7,21,28,1.47
GSLYRCLGEASPTPPCAYEAP [445-G12 peptide-displaying phage (SEQ ID NO: 380)],4,52,85,1.37
GSGDPCSPGPSINGHCSVMAP [453-A05 peptide-displaying phage (SEQ ID NO: 382)],4.5,28,51,1.33
AGNWICNLSEMRCYPKGT [456-E04 peptide-displaying phage (SEQ ID NO: 013)],3.9,81,82,1.4
GDYYQCQFSKDMYSERCWPYDP [316-F08 peptide-displaying phage (SEQ ID NO: 397)],7,38,72,1.3
GDNRFCSWVYNVDDWWCVDNDP [332-H09 peptide-displaying phage (SEQ ID NO: 398)],6.2,43,50,1.3
GSRFHCWQGDLMQTYCMPMAP [452-A03 peptide-displaying phage (SEQ ID NO: 376)],3,112,140,1.3
GDYRMCQISDMWGNYECSSDDP [548-G05 peptide-displaying phage (SEQ ID NO: 400)],6.1,47,110,1.3
